From patent US20220332837A1

Molecular target: OX40-6His Protein-196AAs-21.82 kDa (recombinant canine OX40) (canine)
Assay: phage ELISA, OX-40 coated (control)

Chain of OX40-6His Protein-196AAs-21.82 kDa (recombinant canine OX40) (canine) (chain, as listed by the source limits assumed): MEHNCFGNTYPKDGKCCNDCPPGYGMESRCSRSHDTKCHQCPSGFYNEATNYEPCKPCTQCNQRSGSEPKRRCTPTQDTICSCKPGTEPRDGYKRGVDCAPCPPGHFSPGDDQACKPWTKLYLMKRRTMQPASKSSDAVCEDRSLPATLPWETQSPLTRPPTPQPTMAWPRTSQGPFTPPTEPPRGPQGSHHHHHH

With M13KO7 the ELISA signal, Coating: OX-40 was 0.35.
